{
  "source": "patent US20090275502A1",
  "about": "“METHODS AND COMPOSITIONS FOR ENHANCING DEVELOPMENTAL POTENTIAL OF OOCYTES AND PREIMPLANTATION EMBRYOS” (MOUNT SINAI HOSPITAL, priority 2005, published 2009)",
  "molecules": {"B1": {"name": "Rad51: recombinant Rad51 DNA repair protein (Kurumizaka et al. 1999), microinjected (protein, UniProt Q06609 2-339, looked up)", "DNA repair protein RAD51 …": "AMQMQLEANADTSVEEESFGPQPISRLEQCGINANDVKKLEEAGFHTVEAVAYAPKKELINIKGISEAKADKILAEAAKLVPMGFTTATEFHQRRSEIIQITTGSKELDKLLQGGIETGSITEMFGEFRTGKTQICHTLAVTCQLPIDRGGGEGKAMYIDTEGTFRPERLLAVAERYGLSGSDVLDNVAYARAFNTDHQTQLLYQASAMMVESRYALLIVDSATALYRTDYSGRGELSARQMHLARFLRMLLRLADEFGVAVVITNQVVAQVDGAAMFAADPKKPIGGNIIAHASTTRLYLRKGRGETRICKIYDSPCLPEAEAMFAINADGVGDAKD"}, "B2": {"name": "Smac/DIABLO: recombinant death-promoting protein released along with cytochrome c from mitochondria (protein, UniProt Q9NR28 22-239, looked up)", "Diablo IAP-binding …": "LCVPVVANFKKRCFSELIRPWHKTVTIGFGVTLCAVPIAQKSEPHSLSSEALMRRAVSLVTDSTSTFLSQTTYALIEAITEYTKAVYTLTSLYRQYTSLLGKMNSEEEDEVWQVIIGARAEMTSKHQEYLKLETTWMTAVGLSEMAAEAAYQTGADQASITARNHIQLVKLQVEEVHQLSRKAETKLAEAQIEELRQKTQEEGEERAESEQEAYLRED"}},
  "format_in_all_cases": "cell-based, mouse",
  "key": {"FVB oocytes [1]": {"tested_on": "FVB oocytes", "assay": "Reactive oxygen species (H2DCFDA) content of FVB oocytes", "settings": "co-treatment of FVB oocytes; inhibitor 2 μg ml^−1, 30 min; data not shown", "description": "Reduced glutathione (GSH) content: Quantitation of cellular GSH was assayed by use of monochlorobimane (Molecular Probes, Eugene, Oreg.), a cell-permeant dye that becomes fluorescent upon conjugation to thiol groups (Nasr-Esfahani and Johnson 1992). One group of untreated oocytes served as a control for measuring baseline GSH levels, whereas two other groups of oocytes were treated with I mM hydrogen peroxide (Sigma). For the latter, one group was exposed to hydrogen peroxide for 90 min (oxidative insult) whereas the second group was incubated with hydrogen peroxide for 30 min and transferred to fresh culture medium without hydrogen peroxide for an additional 60 min (recovery after oxidative insult). During the last 15 min of incubation, monochlorobimane was added to a final concentration of 1 mM, after which the oocytes were washed in fresh culture medium. Imaging and micrograph analyses were then conducted using a deconvolution microscope equipped with a cyan fluorescent protein filter. The average fluorescence intensities were tabulated on a per oocyte basis, and the data were then compiled per group. Reactive oxygen species: Formation of ROS was determined through the use of 2′,7′-dichlorodihydrofluorescein diacetate (H2DCFDA; Molecular Probes) as described (Yang et al. 1998). The H2DCFDA dye is membrane permeant, and upon entering the cell the acetate groups are hydrolyzed, creating a membrane impermeant form of the dye (H2DCF). Endogenous ROS oxidize this polar form of the dye to a quantifiable fluorogenic compound (DCF). Oocytes were mixed with a freshly prepared solution of 0.01 M H2DCFDA and incubated for 15 min. After extensive washing in fresh culture medium, imaging was carried out using a deconvolution microscope with a FITC filter. Total light intensity for each optical section and average light intensity for each oocyte were determined using the Delta Vision Software Analysis program. In order to determine baseline fluorescence, control oocytes (unstained) were incubated with an appropriate volume of vehicle (DMSO) prior to imaging. […]"}, "B6C3F1 oocytes": {"tested_on": "B6C3F1 oocytes", "assay": "Apoptosis in cultured B6C3F1 oocytes after microinjection", "description": "(§1) Oocyte isolation and culture: Oocytes were collected after superovulation as described (Perez et al. 1997; Perez et al. 1999; Morita et al. 2000). Briefly, ovulated oocytes were denuded of cumulus cells by a 1-min incubation in 80 IU ml of hyaluronidase (Sigma, St. Louis, Mo.), followed by three washes with culture medium. All cultures were carried out in human tubal fluid (Irvine Scientific, Santa Ana, Calif.) supplemented with 0.5% BSA. The oocytes were maintained in 0.1 ml drops of culture medium under paraffin oil, and incubated at 37° C. in a humidified atmosphere of 5% CO2 and 95% air.\n(§2) In-vitrofertilization and embryo culture: Female mice were superovulated as described above and cumulus-oocyte complexes from the indicated strains were mixed with capacitated sperm collected from adult male mice of the respective strain for in-vitro fertilization (Morita et al. 2000). […] Since zygotes progress to the blastocyst stage of development within 96 h and begin hatching, embryos were fixed at this time and stained with the DNA-binding dye Hoechst 33342 (Sigma) for light and fluorescence microscopic analysis of blastocyst cell number and quality. […] Analysis of DNA “comets” to generate quantitative data on the percent of undamaged versus damaged DNA was performed using the VisComet program (Impuls Computergestutzte Bildanalyse GmbH, Gilching, Germany). […]"}, "FVB oocytes [2]": {"tested_on": "FVB oocytes", "assay": "Electron microscopy of mitochondrial ultrastructure in FVB oocytes", "settings": "10 mM, 3 h; versus vehicle", "description": "Electron microscopy: Oocytes were cultured without or with pyruvate (10 mM) for 3 h prior to being fixed for EM tomography. The oocytes were embedded in agarose and prepared for tomography using conventional protocols for good structural preservation (Ricci et al. 2004). To survey the preservation quality of the oocytes, thin-sectioned materials (−80 nm) were examined using a JEOL 1200FX electron microscope. Three-dimensional reconstructions of portions of the cell containing mitochondria were generated using standard techniques (Perkins et al. 2003). Sections with a thickness between 300-500 nm were cut out, and stained for 30 min in 2% aqueous uranyl acetate, followed by 30 min in lead salts. Next, fiducial cues consisting of 20 nm colloidal gold particles were deposited on both sides of each section.\nFor each reconstruction, a series of images at regular tilt increments were collected with a JEOL 4000EX intermediate-voltage electron microscope operated at 400 kV. In order to limit anisotropic specimen thinning during image collection, the specimens were irradiated before initiating a tilt series. […] Tilt series were recorded at a magnification of 20,000× with an angular increment of 2° from −60° to +60° about an axis perpendicular to the optical axis of the microscope using a computer-controlled goniometer to achieve accurate increments at each angular step. […]"}, "AKR/J oocytes [3]": {"tested_on": "AKR/J oocytes", "assay": "Comet assay of DNA damage in cultured AKR/J oocytes after microinjection", "settings": "6 h culture after microinjection, versus non-injected AKR/J oocytes", "description": "as §1, §2"}, "AKR/J oocytes [4]": {"tested_on": "AKR/J oocytes", "assay": "Apoptosis in cultured AKR/J oocytes", "settings": "microinjection; versus non-injected and BSA-injected oocytes", "description": "as §1, §2"}, "FVB oocytes [5]": {"tested_on": "FVB oocytes", "assay": "Apoptosis in cultured FVB oocytes", "settings": "microinjection; 24 h in vitro", "description": "as §1, §2"}, "AKR/J zygotes": {"tested_on": "AKR/J zygotes", "assay": "Preimplantation embryonic development of in-vitro fertilized AKR/J oocytes to the blastocyst stage", "description": "In-vitrofertilization and embryo culture: Female mice were superovulated as described above and cumulus-oocyte complexes from the indicated strains were mixed with capacitated sperm collected from adult male mice of the respective strain for in-vitro fertilization (Morita et al. 2000). After 2 h, the cumulus-oocyte complexes were washed and maintained in KSOM medium (Specialty Media, Phillipsburg, N.J.) to determine fertilization rates and monitor embryonic progression. Since zygotes progress to the blastocyst stage of development within 96 h and begin hatching, embryos were fixed at this time and stained with the DNA-binding dye Hoechst 33342 (Sigma) for light and fluorescence microscopic analysis of blastocyst cell number and quality. Apoptosis analyses: Oocytes were evaluated as described (Perez et al. 1997; Perez et al. 1999; Mortia et al. 2000) for characteristics of apoptosis, including morphological changes (e.g., cellular condensation, budding and fragmentation) and biochemical alterations (i.e., DNA cleavage using Comet Assay Kit; Trevigen, Gaithersburg, Md.). Analysis of DNA “comets” to generate quantitative data on the percent of undamaged versus damaged DNA was performed using the VisComet program (Impuls Computergestutzte Bildanalyse GmbH, Gilching, Germany). […]"}},
  "data": [
    {"molecule": "antimycin-A", "values": [
      {"measurement": "reduction of ROS content", "setting": "FVB oocytes [1]", "result": 70, "unit": "%"}
    ]},
    {"molecule": "cytochrome c: cytochrome c microinjected into oocytes (6 pl of a 400 μM stock)", "values": [
      {"measurement": "apoptosis in B6C3F1 oocytes", "setting": "B6C3F1 oocytes; subsequent 24 h culture", "result": "did not affect the incidence of apoptosis"}
    ]},
    {"molecule": "C=C(C)[C@H]1Cc2c(ccc3c2O[C@@H]2COc4cc(OC)c(OC)cc4[C@@H]2C3=O)O1", "note": "[rotenone]", "values": [
      {"measurement": "reduction of ROS content", "setting": "FVB oocytes [1]", "result": 54, "unit": "%"}
    ]},
    {"molecule": "CC[C@H]1/C=C/C=C/C[C@@H](C)[C@H](O)[C@@](C)(O)C(=O)[C@@H](C)[C@H](O)[C@@H](C)C(=O)[C@@H](C)[C@H](O)[C@@H](C)/C=C/C(=O)O[C@@H]2[C@H](C)[C@H](CC1)O[C@]1(CC[C@H](C)[C@H](C[C@@H](C)O)O1)[C@H]2C", "note": "[oligomycin]", "values": [
      {"measurement": "reduction of ROS content", "setting": "FVB oocytes [1]", "result": 70, "unit": "%"}
    ]},
    {"molecule": "CC(=O)C(=O)O", "note": "[pyruvate]", "values": [
      {"measurement": "reduction in number of abnormal mitochondria in FVB oocytes", "setting": "FVB oocytes [2]", "result": "more than 75%"}
    ]},
    {"molecule": "B1", "values": [
      {"measurement": "extent of DNA damage", "setting": "AKR/J oocytes [3]", "result": "decreased the extent of DNA damage"},
      {"measurement": "apoptosis in AKR/J oocytes", "setting": "AKR/J oocytes [4]", "result": "significantly suppressed apoptosis"},
      {"measurement": "incidence of apoptosis in FVB oocytes", "setting": "FVB oocytes [5]", "result": "no effect"},
      {"measurement": "blastocyst formation rates of AKR/J zygotes", "setting": "AKR/J zygotes; microinjection into AKR/J zygotes, compared with C57BL/6 zygotes", "result": "levels not different from those observed with C57BL/6 zygotes"},
      {"measurement": "microinjected AKR/J zygotes completing development to the blastocyst stage", "setting": "AKR/J zygotes; microinjection into fertilized AKR/J oocytes, untreated less than 10%", "result": "more than 30%"}
    ]},
    {"molecule": "B2", "values": [
      {"measurement": "increase in incidence of apoptosis in B6C3F1 oocytes", "setting": "B6C3F1 oocytes; 24 h culture", "result": "~3", "unit": "fold"}
    ]}
  ]
}
